{"source": "the DeepSol protein solubility set"}
{"assay": "soluble on expression in E. coli; label from the status in PepcDB or PDB records"}
{"sequence": "MRPEHLSLQLLAWIYLINGNPIVQKGGLEVLDITDSNDLSVRQRFEEVIRLDCASQRRKALKRKTDGDARIYIPTCSPKNSLLYDKVQCYDVSIYCWCVDELSGEPKLGSSTTRGKPKCEETPTTTVAPKRVRRNNRCKEKKRTRFLRRLVSTLKSEMIMSGINATKVSRDSAIRWKFNQLNINHNNVLERSEWKPFKSVLLEWKNVRQCSRNLFKTCDLNKDRKLTFDEWRKCIVQEINRVPAKRPDQLNPFLYILRSE", "soluble on expression in E. coli": "soluble"}
{"sequence": "GSSKSWANHENKTVNKITVVGGGELGIACTLAISAKGIADRLVLLDLSEGTKGATMDLEIFNLPNVEISKDLSASAHSKVVIFTVNSLGSSQSYLDVVQSNVDMFRALVPALGHYSQHSVLLVASQPVEIMTYVTWKLSTFPANRVIGIGCNLDSQRLQYIITNVLKAQTSGKEVWVIGEQGEDKVLTWSGQEEVVSHTSQVQLSNRAMELLRVKGQRSWSVGLSVADMVDSIVNNKKKVHSVSALAKGYYDINSEVFLSLPCILGTNGVSEVIKTTLKEDTVTEKLQSSASSIHSLQQQLKL", "soluble on expression in E. coli": "soluble"}
{"sequence": "MITTGKVWKFGDDISTDEITPGRYNLTKDPKELAKIAFIEVRPDFARNVRPGDVVVAGKNFGIGSSRESAALALKALGIAGVIAESFGRIFYRNAINIGIPLLLGKTEGLKDGDLVTVNWETGEVRKGDEILMFEPLEDFLLEIVREGGILEYIRRRGDLCIR", "soluble on expression in E. coli": "soluble"}
{"sequence": "MTENCCVPGGTVMILSCSGGSNVGQLSNQAAVELTREGVGKMFCLAGIGGQLSGFVQSARDVPEMVTIDGCSVGCAKAILEKARVPLKSYLVLTDLGIEKNKNFELSSHDIRRVKEAVKALLFEK", "soluble on expression in E. coli": "soluble"}
{"sequence": "MLMPEMDRRRMMMMAGFGALAAALPAPTAWADPSRPAAPAGPTPAPAAPAAATGGLLFHDEFDGPAGSVPDPSKWQVSNHRTPIKNPVGFDRPQFFGQYRDSRQNVFLDGNSNLVLRATREGNRYFGGLVHGLWRGGIGTTWEARIKFNCLAPGMWPAWWLSNDDPGRSGEIDLIEWYGNGTWPSGTTVHANPDGTAFETCPIGVDGGWHNWRVTWNPSGMYFWLDYADGIEPYFSVPATGIEDLNEPIREWPFNDPGYKVFPVLNLAVGGSGGGDPATGSYPQEMLVDWVRVF", "soluble on expression in E. coli": "not soluble"}
{"sequence": "MESQLPKFLKEPEKYSRLRLLEALQELYLSIEMLKEGYSRNSASKLFLSWKALLSSIVVTNFGKIMETKKKEGKEDEIKWYMRIGYSAPTTGLIGIARDLENLGFKGLVNLTTAMLGIHRYAYNGLDEDISPFHSRSEAIISIKGLIKAEVEIVGSMKFGDEEKELFEKIKRELNNILEHHHHHH", "soluble on expression in E. coli": "not soluble"}
{"sequence": "MLSSSEKVAGQGVSGAYRELVRLLHRAAKDQLIVTENLPIEADVTHFHTIDFPYYLSTFQKKRSGRKIGYVHFLPATLEGSLKIPFFLKGIVKRYVFSFYNRMEHLVVVNPMFIEDLVAAGIPREKVTYIPNFVNKEKWHPLPQEEVVRLRTDLGLSDNQFIVVGAGQVQKRKGIDDFIRLAEELPQITFIWAGGFSFGGMTDGYEHYKKIMENPPKNLIFPGIVSPERMRELYALADLFLLPSYNELFPMTILEAASCEAPIMLRDLDLYKVILEGNYRATAGREEMKEAILEYQANPAVLKDLKEKAKNISREYSEEHLLQIWLDFYEKQAALGRK", "soluble on expression in E. coli": "not soluble"}
{"sequence": "MINIIGLGPGNLDYITKKGENLISTSDVLIGGKRNLESIKNFEGEKIVLDSNLREIIEYINNNKEKQISIIASGDPLIYGIGRYLSKNIDNKMLNMVSGISSLQYIFSKIYVDMNDVYITSSHGKVPDFDYILSHKKVCMVTDSKIGPKQISREIIDRNLNKIIVVGENLSYDNEKITIAKPEEIIRIDNFDMNVVVILDEE", "soluble on expression in E. coli": "not soluble"}
{"sequence": "GPGSMSQQNAVEALLARLQMGDTIPAFQSMGVDRIVSLRKMSEEALSQAVPDPEQRQALMDAIESRGHLQSRRAGPPAGQPHPPRSADADFARGGNDEGRGGYAPRGDRGGRIARGGRGGGRGAGAPNGDDAARVCRHVFTPEGCKYGDKCRYSHDENDRRRAQEVPTGSGMAQRSLERPPPNFKFSIEVEIPTERIKYLLGSQGNNMKFINETCGTYNERFDHVDEKEETFTIRILGGSEEAINKAKEMLLLSAGVKREEEKKDRFQYAVNELDANTHAARLFAACNTKNKDTTRHLSDSIMRNIVSSFHFVRPQEVRHFYMYTSSSDKDKLEMVSKIVSQLKGVQAILFCDQKRVEEMCKGSQRIARHFNGVEPQFVYRQLSKEDRMMALERFKKGVENENGVRQRLLVTNEDYAKLARKTIIPYVNLVINFSVPRAEEYYVLQSQVAGRQGTIGASFLCVSNYEEALFRELEKNIQFERFEDEEHFRTTAVELSYDTTAQPLTPEDADPPADWREHLNDKKPRQNFGKRR", "soluble on expression in E. coli": "soluble"}
{"sequence": "MPPNANSVGGPKKKNKKNHQRPQQQHQQTQPQPLPEEEQPENPIKKDPKPEVLEEVVEKNREEDKEKVEETVAPTIEKEKNISGDLLDFSSSDKSSLSSRPDSPEEDEDAVPVVNRTTTSPPTSPPSQTAVEQDSLQAEEMLVDMSLDDAPAAPPRKPHQRSAPPPIPSMNTIMTKPRTNSVSYIKGQVVRQSAVEQQTLANQVVDLVAMGMSKGQTQSSQITAEKAEWVQLTSVEKAGEPNERLEVLIVGLCRGYQIWTMSQSGEFEEVLSERQGPVRALKVLPNNLKLRGKKDSFADSRPLIAMVDASSHHPDRQYCSVTIISLLTGREVHKIKFEEPVCAVNVSDQFLVVSLANMAYAYDILTFNEVRTIRTAPSCENSPPALSLSCQLLAYADTSLDLNLQSSGGLAAEVEATSSEKYTDHIYTAMSYFSRSVKTISESVGAGSGSSTKANQPQGVITVLNLAVSGEDESDGVMCHYVAHVDPISYIAFSPDQRLVLSADANANVFNIFLLMPHATSSSLAAVQHLYKLNRGSTPAKVVSTAFSEDCRWLAITTNHATTHVFAVCPFGGKPNQRTHGDTFVNKESRFHRSAGLTDAADVTASIGPSKHRAMADSCSYTKEHPIAVNSPTLAKTNGNSRVGPFPPPLLLVATEKIKDSRYTKEDLSAWAADMTSFSYPAAQASSSPAVAARRRLEVSRMSVMFRMKSYNSTTSTKTAKTTKMLMSMSLVIAKVDPAQGVIVTQHDIKSLRKEGETNMEASPQISVAPVGGWILQRTKNNADMHAPMPSASPLMAFATVETVPAKRIGDEDVWTPHVETRTYLPPHRWIWQGPQFELFEYREDDQPSLMSPGNKGSNASFKSIPVLVGSEAVNITMKTIPADATRIECGSYTSANSYSIDQGSDQPVIGGYSSATNGDYIASIADAMRDISSDDDSTKKKSPKNDDLIEEFFDTESSTPFARNGSGSSSSTGATGGKSLKKKKTPPASAPLPTSSTKSSQKDKKVQNGRERSKDSDDFGTFDMDDI", "soluble on expression in E. coli": "not soluble"}
{"sequence": "MSLIVLGLEGTAHTISCGIIDESRILAMESSMYRPKTGGIRPLDAAVHHSEVIDTVISRALEKAKISIHDIDLIGFSMGPGLAPSLRVTATAARTISVLTGKPIIGVNHPLGHIEIGRRVTGAIDPVMLYVSGGNTQVIAHVNGRYRVLGETLDIGIGNMIDKFAREAGIPFPGGPEIEKLAMKGTKLLDLPYSVKGMDTAFSGILTAALQYLKTGQAIEDISYSIQETAFAMLVEVLERALYVSGKDEILMAGGVALNRRLRDMVTNMAREAGIRSYLTDREYCMDNGIMIAQAALLMYKSGVRMSVEETAVNPRFRIDEVDAPWITDASRKDYGKAGAESRIEEVSFHGRPAIRKVRISKSYRNSDLDKKIRYERMRNEFTILRKLKEAGVNSPVVYDFDPFSMSITMQKIPGRMMSAELNEGRTDFLNELGIMIAKMHRAGIAHGDLTVNNIIVNDSVFIIDPSMGKVNAEIEDMAVDIYALEDSIKGLGLDSGSVIGQMLKSYRNNFNLADDVLETVSAIRRRHRYVEGHHHHHH", "soluble on expression in E. coli": "not soluble"}
{"sequence": "SLVELQEIFDVSYGSKLDLNKMSSFNPTINFVGRSGKNNGVTASVDLLKNTKPYPAGLLTVALGGSVLSTFLQNKPFYTAQNVAVLNPKTEMTEQQKLFYCAAIFANAYRFSACGREANRTLRQLFVPSLDEIPSWVESVNLNPSAGVTEPKLKESLDLPVVRQSKRLDEIFTIQNGIAATKLKEFEQRQKDTVVYIRPASTQARTLRSYIARDSVDEKHIFPCHTLFTSTNGEGSHTYSYVSTCEFVANSDVAVLTPIQSDMPIEVKLYYAKCITANRYLFSYGRKPKGEKLKSIMLPYFDQQEDFDYICRFIHTLLFSNNL", "soluble on expression in E. coli": "not soluble"}
{"sequence": "MGSDKIHHHHHHMNVVVCIKQVPDTTNVRIDRKTNNLVREGVPSIINPDDERALELASQLKEKFGATVYVITMGPPQAKEALKDAIAFGLDEAVHLSDRTFAGADTLATTYTLYWGIKKIEERIGKIDLILTGKQAVDGDTGQVGPGLATRFGYALGAYVVRIEEIDPEKKEMVIVRRLDQGFEKIRLKLPAVLTITDELNKPRYADLPNLIRAIRYEPIVWTHKDLGLDPKKCGFFGSPTRVVSTNIPPARKGGDIISKNEDPEVAAEKLIEALKKFEAVRLVEALKPVLEGEKDE", "soluble on expression in E. coli": "not soluble"}
{"sequence": "MGSDKIHHHHHHQEKVSSMSEKSAPGSIQQPTRAQQLMGDIDPKLAELTDKVLFGDVWERKQLSKRDRSLVTVAALISLNRPDQLRSHMALALQNGVTREELVETITQLAFYTGWPNAVSAVPVARDVFRAADAAASHPDQGAQAQDDRTITVIHAGSQPSTHGSADHFTGSVQVDSRFQAQAPARSGGGIVTFEPGARTAWHTHPLGQTLIVTAGIGLVQQWGGPVQVIKPGDIVWIPPGVKHWHGATRTSGMTHIAIAEALDGKSVDWMELVMDAQYLGGQPR", "soluble on expression in E. coli": "not soluble"}
{"sequence": "MLVPGRVYLFRIPEGKEIIEFLREFAEKENIKVGIISAIGTLRNPVIGYFMEEEKKYKEISLTGTYELLSLSGNISLKDGKPFVHAHVVLGDSEGRAFGGHLVRGEVFVAEVFVQELEGETLERKPTEHGLALWLEHHHHHH", "soluble on expression in E. coli": "not soluble"}
{"sequence": "MGSDKIHHHHHHVRFIMKTNLFTSLLKKCIYGLSWFFPRQGNKAVFGCYKNLFADNSKYLYLHWHKNKFMHVIWISGDASLVNALRKKGFIAYERWSLEGVYHALTARFYIYNSYIGDVNQWFASGSIKINLWHGSPLKRIEFDIDHGPLAHKYQSNSYWQKTWHSLLYHQEYVRPQLMLSPSPLVDRLFCSAFRLQKKQLLSCGNPRTDFYRRYPDKCQSINSKPDGTSYKKVILYAPSWRDANLSNTETVQSPYEKAFNWGVLSQFLVNSDCLFLLRLHPNERHYAKHFSAYPNVRDISSWEDVYGILHQVDLLLTDYSSLFIDVLPLNIPIVFYLFDHESYIKNSRNCYEYSQCLPQAGLIAYGFEELINILKNNTSKKQTETLHLAYTQLQKLYWQEMNEHSDCFELLERYICRRNLLKSPLNTQIS", "soluble on expression in E. coli": "not soluble"}
{"sequence": "MSLTENKGTPEVGWSFDTRYTDLPSMMFSNVEPEPVEAPKLVILNDSLAQSLGLDPVALQHQNSIAVLAGNEVPKGAAPLAQAYAGHQFGHFTMLGDGRAILLGEQITPNGERFDIQLKGSGRTPYSRQGDGRAALGPMLREYIISEAMHALGIPTTRSLAVVTTGESVFRETVLPGAILTRVAASHIRVGTFQFVANAGSEEELKALADYTLARHFPEVEADRENRYLALLQKVIKRQAELIAKWQLVGFIHGVMNTDNMTISGETIDYGPCAFMDVYDPETVFSSIDTRGRYAYGNQPRIGAWNLARFAEALLPLLADDQDEAIKLAEAEISNYAEQFEHHWLNGMRAKLGLFNEESEDLSLIKDLLEVMHKHKADFTNTFRALTFDEQEETGLHDKLEFTEWHERWQARLGRQEQTKDDSHNLMKMSNPAVIPRNHRVEEALEAAVEQEDYQVMERLLKVLANPFAHSPEQKAYAKLPAPCAIPYRTYCGTEGHHHHHH", "soluble on expression in E. coli": "not soluble"}
{"sequence": "MGSDKIHHHHHHMENLLEVQQLNKSYKNSEFQLTDITFSVKPGEVVGLIGKNGSGKSTLINTLVGNRHKDNGSLKFFNKEVTENDFKYKEHLGVVFDDLRVPDKLTLQSINKVFTEIYDAWNSDTFFSLIKAFELPTNNQIKTFSRGMRMKAALTIALSHDAKLLILDEATAGMDVSGREHVLEILEDYLGDDRAILISSHISEDIEQLATQLVFMRDGRIILKESKEVLLSQYGIIDQPVEHFNISNEYLIATRRRNDRQISLVNNYQKVPDAQPLKTIDDATKIIMRGEV", "soluble on expression in E. coli": "not soluble"}
